Laboratory results: patent US20250032632A1 (published 2025)
Changes are numbered by the printed parent chain.

B1: Chimeric P3D12 (antibody, V domains shown)
VH: QVQLQQSGAELAKPGASVKMSCRASGYTFTSYWMHWVKQRPGQGLDWIGYIKPSTDNTEYNQKFKDKATLTADKSSSTAYMQLSSLTSEDSAVYYCARSYGNYPLMDYWGQGTSVTVSS
VL: QIVLTQSPAIMSASPGEKVTLTCSASSSVTSNYLYWYQQKPGSSPKLWIYSTSNLASGVPARFSGSGSGTSYSLTISSMEAEDAASYFCHQWSSYPPTFGSGTKLEIKR
notes: Mouse P3D12 variable regions with human constant regions
B2: G2ckc (humanized P3D12, VH-cdr + VL-cdr) (antibody, V domains shown)
VH: QVQLVQSGAEVKKPGASVKVSCKASGYTFTSYWMHWVKQAPGQGLDWIGYIKPSTDNTEYNQKFKDKATLTADKSTSTAYMELSSLRSEDTAVYYCARSYGNYPLMDYWGQGTTVTVSS
VL: QIVLTQSPATLSLSPGERATLSCSASSSVTSNYLYWYQQKPGSSPRLLIYSTSNLASGVPARFSGSGSGTSYTLTISRLEPEDFASYFCHQWSSYPPTFGSGTKLEIKR
notes: Humanized and isotype switched version of P3D12
B3: G2aka (humanized P3D12, VH-abb/sdr + VL-abb/sdr) (antibody, V domains shown)
VH: B2 VH with I48M, N61A, K65Q, D66G, K67R, A68V
VL: B2 VL with S24R, S27Q, S71D
notes: as for B2
B4: G2akc (humanized P3D12, VH-abb/sdr + VL-cdr) (antibody, V domains shown)
VH: B2 VH with I48M, N61A, K65Q, D66G, K67R, A68V
VL: B2 VL
notes: as for B2
B5: G2akf (humanized P3D12, VH-abb/sdr + VL-fra) (antibody, V domains shown)
VH: B2 VH with I48M, N61A, K65Q, D66G, K67R, A68V
VL: B2 VL with T10I, R46K, R78S, P81A, F84A
notes: as for B2
B6: G2fkv (humanized P3D12, VH-fra + VL-ven) (antibody, V domains shown)
VH: B2 VH with V5Q, A40R, K67R, A68V, E82Q, S85N, R87I, T114S
VL: B2 VL with L11M, L13A, A19V, L48W, L79M, F84A
notes: as for B2
B7: G2fka (humanized P3D12, VH-fra + VL-abb/sdr) (antibody, V domains shown)
VH: B2 VH with V5Q, A40R, K67R, A68V, E82Q, S85N, R87I, T114S
VL: B2 VL with S24R, S27Q, S71D
notes: as for B2
B8: G2fkc (humanized P3D12, VH-fra + VL-cdr) (antibody, V domains shown)
VH: B2 VH with V5Q, A40R, K67R, A68V, E82Q, S85N, R87I, T114S
VL: B2 VL
notes: as for B2
B9: G2akv (humanized P3D12, VH-abb/sdr + VL-ven) (antibody, V domains shown)
VH: B2 VH with I48M, N61A, K65Q, D66G, K67R, A68V
VL: B2 VL with L11M, L13A, A19V, L48W, L79M, F84A
notes: as for B2
B10: G2vka (humanized P3D12, VH-ven + VL-abb/sdr) (antibody, V domains shown)
VH: B2 VH with K12A, V20M, E82Q
VL: B2 VL with S24R, S27Q, S71D
notes: as for B2
B11: G2ckv (humanized P3D12, VH-cdr + VL-ven) (antibody, V domains shown)
VH: B2 VH
VL: B2 VL with L11M, L13A, A19V, L48W, L79M, F84A
notes: as for B2
B12: G2vkv (humanized P3D12, VH-ven + VL-ven) (antibody, V domains shown)
VH: B2 VH with K12A, V20M, E82Q
VL: B2 VL with L11M, L13A, A19V, L48W, L79M, F84A
notes: as for B2
B13: G2vkc (humanized P3D12, VH-ven + VL-cdr) (antibody, V domains shown)
VH: B2 VH with K12A, V20M, E82Q
VL: B2 VL
notes: as for B2

Molecular target: T1, rat cMET-Fc (rat, UniProt P97523 25-935)
T1 construct: Construct named only as rMET-Fc; also called rMET-Fc; not shown: Fc part
T1 sequence (P97523 25-935 limits assumed): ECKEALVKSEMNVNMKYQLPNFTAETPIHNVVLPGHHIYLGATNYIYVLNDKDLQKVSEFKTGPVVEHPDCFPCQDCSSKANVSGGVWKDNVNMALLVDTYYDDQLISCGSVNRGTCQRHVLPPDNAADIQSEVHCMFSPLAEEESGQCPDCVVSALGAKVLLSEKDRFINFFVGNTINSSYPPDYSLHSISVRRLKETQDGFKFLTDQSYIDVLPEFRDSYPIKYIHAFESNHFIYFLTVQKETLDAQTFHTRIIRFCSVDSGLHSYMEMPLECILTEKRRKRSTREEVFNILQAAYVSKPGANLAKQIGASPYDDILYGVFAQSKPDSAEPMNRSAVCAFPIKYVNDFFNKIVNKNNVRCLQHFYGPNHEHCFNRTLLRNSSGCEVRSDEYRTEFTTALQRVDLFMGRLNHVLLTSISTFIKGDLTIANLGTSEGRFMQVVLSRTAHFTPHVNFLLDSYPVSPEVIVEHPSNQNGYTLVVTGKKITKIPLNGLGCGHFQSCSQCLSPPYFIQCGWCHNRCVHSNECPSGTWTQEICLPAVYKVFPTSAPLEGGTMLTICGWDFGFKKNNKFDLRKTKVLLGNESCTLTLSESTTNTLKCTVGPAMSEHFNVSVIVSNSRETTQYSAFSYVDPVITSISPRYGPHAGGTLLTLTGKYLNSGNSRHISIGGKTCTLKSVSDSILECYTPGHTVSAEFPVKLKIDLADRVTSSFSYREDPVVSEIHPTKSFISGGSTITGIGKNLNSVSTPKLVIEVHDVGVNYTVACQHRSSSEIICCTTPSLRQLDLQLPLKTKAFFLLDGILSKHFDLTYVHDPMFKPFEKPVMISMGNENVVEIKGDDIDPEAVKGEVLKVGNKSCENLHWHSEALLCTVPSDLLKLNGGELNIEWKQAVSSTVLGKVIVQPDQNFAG
Test: SPR, rMET-Fc

| Kd | Binder |
| --- | --- |
| 30 nM | B1 |
| 31 nM | B2 |
| 26 nM | B3 |
| 38 nM | B4 |
| 23 nM | B5 |

Molecular target: T2, human cMET-Fc fusion protein (extracellular domain of human cMET fused to human Fc) (human, UniProt P08581 25-932)
T2 construct: Mature cMET is cleaved into alpha and beta subunits; also called hMET-Fc; hMet-Fc
T2 sequence (P08581 25-932): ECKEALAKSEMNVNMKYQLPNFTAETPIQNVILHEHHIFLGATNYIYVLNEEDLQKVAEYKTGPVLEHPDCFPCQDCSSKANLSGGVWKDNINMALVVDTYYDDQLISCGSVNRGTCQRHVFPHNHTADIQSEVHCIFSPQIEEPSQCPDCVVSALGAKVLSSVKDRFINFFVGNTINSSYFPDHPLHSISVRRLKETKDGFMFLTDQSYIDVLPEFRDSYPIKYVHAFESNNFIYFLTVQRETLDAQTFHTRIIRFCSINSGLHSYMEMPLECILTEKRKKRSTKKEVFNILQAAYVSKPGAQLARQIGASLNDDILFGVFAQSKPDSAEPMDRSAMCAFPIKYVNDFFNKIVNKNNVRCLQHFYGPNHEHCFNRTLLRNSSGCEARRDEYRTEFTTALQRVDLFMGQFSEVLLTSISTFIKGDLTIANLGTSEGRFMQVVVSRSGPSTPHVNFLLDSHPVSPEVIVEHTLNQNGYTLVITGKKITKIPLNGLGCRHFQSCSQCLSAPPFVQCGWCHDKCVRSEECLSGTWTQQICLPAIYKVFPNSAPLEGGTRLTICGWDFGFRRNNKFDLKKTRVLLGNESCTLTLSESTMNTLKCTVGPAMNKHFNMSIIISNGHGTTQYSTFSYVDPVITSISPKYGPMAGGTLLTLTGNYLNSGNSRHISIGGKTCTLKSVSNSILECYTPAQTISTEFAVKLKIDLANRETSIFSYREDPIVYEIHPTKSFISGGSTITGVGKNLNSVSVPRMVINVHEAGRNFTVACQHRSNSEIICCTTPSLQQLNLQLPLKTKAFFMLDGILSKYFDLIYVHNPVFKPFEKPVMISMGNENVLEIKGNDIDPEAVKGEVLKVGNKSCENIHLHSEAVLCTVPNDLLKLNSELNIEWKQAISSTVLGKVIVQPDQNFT
Test: SPR, hMET-Fc

| Kd | Binder |
| --- | --- |
| 0.7 nM | B1 |
| 0.9 nM | B2 |
| 0.9 nM | B3 |
| 0.7 nM | B4 |
| 0.6 nM | B5 |

Molecular target: T3, rat cMET (ELISA antigen) (rat, UniProt P97523 25-935, limits assumed)
T3 construct: also called rMET
T3 sequence (P97523 25-935 limits assumed): as the sequence (P97523 25-935 limits assumed) above
Test: ELISA on rat cMET, relative to parental P3D12

| ELISA rMET vs parental | Binder |
| --- | --- |
| 2 fold vs parental | B2 |
| 1.2 fold vs parental | B6 |
| 3.8 fold vs parental | B7 |
| 2.3 fold vs parental | B8 |
| 1.1 fold vs parental | B3 |
| 0.7 fold vs parental | B4 |
| 1.3 fold vs parental | B9 |
| 2.7 fold vs parental | B10 |
| 1 fold vs parental | B11 |
| 1.6 fold vs parental | B12 |
| 0.5 fold vs parental | B5 |
| 1.9 fold vs parental | B13 |

Molecular target: T4, human cMET (ELISA antigen) (human, UniProt P08581 25-932, limits assumed)
T4 construct: also called hMET
T4 sequence (P08581 25-932 limits assumed): as the sequence (P08581 25-932) above
Test: ELISA on human cMET, relative to parental P3D12

| ELISA hMET vs parental | Binder |
| --- | --- |
| 1 fold vs parental | B2 |
| 1.7 fold vs parental | B6 |
| 1.8 fold vs parental | B7 |
| 1.7 fold vs parental | B8 |
| 0.9 fold vs parental | B3 |
| 1.3 fold vs parental | B4 |
| 1.6 fold vs parental | B9 |
| 0.9 fold vs parental | B10 |
| 1.1 fold vs parental | B11 |
| 1.6 fold vs parental | B12 |
| 1 fold vs parental | B5 |
| 1.1 fold vs parental | B13 |
